Assay results as given in patent US7799901B2, “Modulators of the function of FAS receptors and other proteins” (Yeda Research and Development Co. Ltd., priority 1995, dated 2010).
“Also recorded” adds a separate entry of the source.

Assays:
[1] = test system: yeasts; assay: Cytotoxic effect on transfected yeasts (yield of colonies); format: cell-based, yeast; settings: decrease in the yield of colonies; activation domain vector
Source text: To find out if MACHα1 can bind to MORT1, as does MACHβ1, the interaction of the proteins within transfected yeasts was first examined. […] This effect was manifested in a marked decrease in the yield of colonies in yeasts that expressed the protein in the activation domain (AD) vector (whose expression level is higher than that of the DNA binding domain (DBD) vector). On the other hand, […] in which the catalytic cysteine residue, Cys360, was replaced with Ser (MACHα1 (C360S)) was not cytotoxic to either mammalian cells (see below), or yeast. Like MACHβ1, MACHα1 (C360S) bound in tranfected yeast to MORT-1 and also to itself. It also bound to MACHβ1. […] The intensity of the lacZ-product color varied, however, among the yeast colonies; in yeasts tranfected with MACHα1 in both the AD and the DBD vectors no color product was observed, probably because of the cytotoxic effect of the wild-type MACHα1.

[2] = molecular target: T1, MORT1 (Homo sapiens, UniProt Q13158); assay: Co-immunoprecipitation with co-expressed MORT1 from HeLa cell lysates; format: binding; parameters: expressed in transfected cells; host or cells: HeLa cells; settings: HeLa cells; FLAG-tagged MACH, HA-tagged MORT1
T1 sequence (Q13158 1-208): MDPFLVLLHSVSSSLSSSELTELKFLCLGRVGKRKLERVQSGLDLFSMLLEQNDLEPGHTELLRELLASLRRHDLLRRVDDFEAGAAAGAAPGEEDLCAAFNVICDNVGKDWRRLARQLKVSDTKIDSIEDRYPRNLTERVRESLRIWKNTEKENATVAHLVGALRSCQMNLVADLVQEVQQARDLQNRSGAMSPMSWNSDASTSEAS
Source text: It has been shown also to contribute to, though not to suffice in, the self association of MORT-1 (see Example 1). […] To further assess the involvement of the MORT modules in these interactions, deletion mutants of MACHβ1, fused with the FLAG octapeptide (FLAG-MACHβ1), were expressed in HeLa cells and assessed for their binding in vitro to bacterial-produced […] fusion protein (GST-MORT-1). […] FIGS. 9A and 9B show the results (autoradiograms) of the in vitro interaction of MACHβ1 and its deletion mutants with MORT-1. Briefly, 35 [S] metabolically labeled MACHβ1, MACHβ1 fused at its N-terminus to the FLAG octapeptide (FLAG-MACHβ1), C-terminus truncation mutants of FLAG-MACHβ1, and, as a control, luciferase, were produced in transfected HeLa cells. […]
Testing further if MACHα1 can bind to MORT1 also within mammalian cells, MACHα1 or MACHβ1, fused with the FLAG octapeptide was expressed, together with HA epitope-tagged MORT1 molecules. ^35[S] metabolically labeled MACHα1 and MACHβ1 fused at their N-termini to the FLAG octapeptide (FLAG-MACHα1 and β1), and MORT1 fused at its N terminus to the HA epitope (Field et al, 1988) were expressed in HeLa cells. […] The proteins were analyzed by SDS-polyacrylamide gel electrophoresis (12% acrylamide), followed by autoradiography. […]

Molecule | cytotoxic effect on yeasts [1] | binding to co-expressed MORT1 (co-immunoprecipitation) [2]
MACHα1: MACH isoform, cDNA SEQ ID NO: 14, amino acid SEQ ID NO: 7; contains CED3/ICE homology region | significant cytotoxic effect | co-immunoprecipitated
MACHα1 (C360S): MACHα1 mutant in which the catalytic cysteine Cys360 is replaced by Ser (protein) MDFSRNLYDIGEQLDSEDLASLKFLSLDYIPQRKQEPIKDALMLFQRLQEKRMLEESNLSFLKELLFRINRLDLLITYLNTRKEEMERELQTPGRAQISAYRVMLYQISEEVSRSELRSFKFLLQEEISKCKLDDDMNLLDIFIEMEKRVILGEGKLDILKRVCAQINKSLLKIINDYEEFSKERSSSLEGSPDEFSNGEELCGVMTISDSPREQDSESQTLDKVYQMKSKPRGYCLIINNHNFAKAREKVPKLHSIRDRNGTHLDAGALTTTFEELHFEIKPHDDCTVEQIYEILKIYQLMDHSNMDCFICCILSHGDKGIIYGTDGQEAPIYELTSQFTGLKCPSLAGKPKVFFIQASQGDNYQKGIPVETDSEEQPYLEMDLSSPQTRYIPDEADFLLGMATVNNCVSYRNPAEGTWYIQSLCQSLRERCPRGDDILTILTEVNYEVSNKDDKKNMGKQMPQPTFTLRKKLVFPSD | not cytotoxic | 
MACHβ1: MACH isoform, cDNA SEQ ID NO: 4, amino acid SEQ ID NO: 5; lacks the CED3/ICE homology region (protein) MDFSRNLYDIGEQLDSEDLASLKFLSLDYIPQRKQEPIKDALMLFQRLQEKRMLEESNLSFLKELLFRINRLDLLITYLNTRKEEMERELQTPGRAQISAYRVMLYQISEEVSRSELRSFKFLLQEEISKCKLDDDMNLLDIFIEMEKRVILGEGKLDILKRVCAQINKSLLKIINDYEEFSKERSSSLEGSPDEFSNDFGQSLPNEKQTSGILSDHQQSQFCKSTGESAQTSQH |  | bound; also recorded: co-immunoprecipitated
